Laboratory results taken from the supplement of paper PMC10567573.
± gives the standard deviation.

Assay: protein stability index of a GFP-peptide fusion (GPS, HEK-293T) (PSI 1-6); higher = more stable
Conditions: c terminus: a fixed tail appended
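Note: 24-mer peptide tiles fused after GFP, lentivirally expressed, FACS-sorted into six equal bins by GFP/DsRed ratio, decoded by Illumina sequencing, PSI is the read-weighted mean bin number.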

Sequence	protein stability index (treatment: DMSO)	protein stability index (treatment: MLN4924 1 uM, 8 h)
QLDWDELETNQQHFHALCHSLLVS [M1AP]	2.3 ± 0.29	2.69 ± 0.45
EPLRILSKYHRFISFTLYLIGFCM [CDS2]	1.95 ± 0.32	1.96 ± 0.16
LIGFCMFVLSLVKKHYRLQFYMFG [CDS2]	2.33 ± 0.61	2.47 ± 0.85
EASSSPPEGSQDRNTSWGVVQEPP [TLE6]	5.12 ± 0.28	5.2 ± 0.18
TSCLKKREEMKLKECVSILPRKES [TNFSF13B]	4.42 ± 0.15	4.5 ± 0.15
AGRWLWGAQPCLLLPIVPLSWLVW [ADAMTS4]	2.98 ± 1.5	3.24 ± 2.6
TTQSAEVGAAETTLTELRRTVQSL [KRT18]	4.63 ± 0.22	4.55 ± 0.4
CSNLTPNVPNVCRMYCSDLLNPNL [SPACA3]	2.62 ± 0.55	2.42 ± 0.45
LTGLFKGDKCHSLVGKPKIFIIQA [CASP6]	2.83 ± 0.46	2.93 ± 0.65
RVRFGQQKRYQDWFQRQYLSTPDS [INTS3]	2.85 ± 0.23	3.07 ± 0.14
PAQVPREVLKVQTHLENPTRYHLQ [TFE3]	3.75 ± 0.43	3.82 ± 0.093
QELNELFKPVVAAQKISKGADPKS [ZC3H15]	4.8 ± 0.13	4.92 ± 0.18
EKKLTVRQDLEDRYAEHVAATQAL [C22orf31]	4.55 ± 0.12	4.53 ± 0.21
LTSLLACLPAGPRVYFLKGGYETF [DUSP5]	2.34 ± 0.42	2.36 ± 0.47
VFVGNQLIPQPLDSEEDEKMEEDI [PCMTD1]	4.99 ± 0.2	5.07 ± 0.22
MDADMDYERPNVETIKCVVVGDNA [RHOBTB1]	4.8 ± 0.1	4.83 ± 0.14
DLSKIIRTSSGTSREKTACAINKV [FAM98B]	3.06 ± 0.27	3.19 ± 0.6
AILYYYQSGGRLRRPVNVPLDMFS [KCNA1]	2.69 ± 0.84	2.29 ± 0.42
SYKYTSRYVLKAGQTVTIWAANAG [LMNB1]	2.24 ± 0.25	1.87 ± 0.25
YSCQSKEILRYMKEFTLLLSAANV [P2RY14]	2.4 ± 0.45	2.26 ± 0.31
TAEKRKRLGELFNPYYDPLQWKSS [CHGB]	2.54 ± 0.17	2.93 ± 0.34
LETEIEALKEELLFMKKNHEEEVK [KRT18]	5.1 ± 0.12	4.98 ± 0.098

Sequence	protein stability index (treatment: DMSO)	protein stability index (treatment: MLN4924 1 uM, 8 h)
TEMIITKAGRRMFPACRVSVTGLD [TBX6]	2.31 ± 0.3	2.2 ± 0.22
EDEEEEEGGEGEKEGEGEVGGEAV [TRIM55]	5.74 ± 0.24	5.7 ± 0.27
MRELGLLIFFLFIGVILFSSAVYF [KCNA4]	2.91 ± 0.35	2.03 ± 0.64
VSEWASKAKANGITMYAVGVGKAI [MATN2]	2.33 ± 0.3	2.36 ± 0.2
FEKHRWPPVWYLKEEDHYQRARKE [RHOBTB2]	3.26 ± 0.3	3.52 ± 0.5
REIARYLLEQGAQVNRRSAKGNTA [FEM1A]	3.29 ± 0.12	3.54 ± 0.31
DLQLTVGGAQASGTLIGVGQSVTA [MFSD9]	3.52 ± 0.34	3.6 ± 0.24
AEQLRIELNAEKFKNSLLQKELKK [WEE1]	3.88 ± 0.28	3.94 ± 0.42
DSEQNGQVTCSILAYLPFKLEKSI [PCDHGA10]	2.16 ± 0.24	2.27 ± 0.41
KYVSKELAKEIRVKAEPFIKWLKE [EIF5]	3.08 ± 0.4	3.07 ± 0.46
KLDQLDQDIENALSTSSSPSGTPT [DLC1]	5.2 ± 0.19	5.35 ± 0.27
PEGLDSDFLAVLSDYPSPDISPPI [SLA]	4.08 ± 0.11	4.14 ± 0.097
ASHSLSPSEHVQGKSPVNMVTVAM [ZNF649]	3.3 ± 0.29	3.21 ± 0.35
VCSVRGGEGRSRGSANDYKDTLGK [KRT71]	4.68 ± 0.32	4.79 ± 0.18
TASKAIIEKEYQPHVIVSTTGPNP [ADD1]	4.47 ± 0.21	4.65 ± 0.16
DMAGKIKLWDLRTTKCVRQYEGHV [DCAF4]	2.56 ± 0.18	2.68 ± 0.35
TRGDADMYDLPKKEDALLYQSKGY [EMD]	4.19 ± 0.14	4.38 ± 0.15
TEQFTAMRDLYMKNGQGFALVYSI [RAP1B]	3.25 ± 1	2.96 ± 0.5
GKAATMEIPIHGNGEARQLPEDDG [ARFIP2]	5.58 ± 0.15	5.34 ± 0.21
SDKIGSTIDDTISKFRRKDREDSP [CLINT1]	5.1 ± 0.4	5.21 ± 0.3
APGSASSSKVSGVLKKLAQSRRTA [YJU2B]	3.81 ± 0.3	3.87 ± 0.34
DVEFLPVYHPSPEESRDPTLYANN [LPCAT4]	4.88 ± 0.32	4.64 ± 0.054
